Measurements as given in patent US20230065306A1 (INHIBRX, published 2023).
Like-named read-outs stand apart in the source and are kept apart here. Each block holds one binder with its values, some of them ahead of it.

Columns and labels:
CD123-his [1] = biological target: T1, CD123-his; test: BLI, CD123-his on Ni-NTA sensors preloaded with hz1B11v28, second sdAb 100 nM
T1 construct: also called histidine tagged human CD123; His-tagged CD123 ECD
T1 extracellular domain with C-terminal His tag: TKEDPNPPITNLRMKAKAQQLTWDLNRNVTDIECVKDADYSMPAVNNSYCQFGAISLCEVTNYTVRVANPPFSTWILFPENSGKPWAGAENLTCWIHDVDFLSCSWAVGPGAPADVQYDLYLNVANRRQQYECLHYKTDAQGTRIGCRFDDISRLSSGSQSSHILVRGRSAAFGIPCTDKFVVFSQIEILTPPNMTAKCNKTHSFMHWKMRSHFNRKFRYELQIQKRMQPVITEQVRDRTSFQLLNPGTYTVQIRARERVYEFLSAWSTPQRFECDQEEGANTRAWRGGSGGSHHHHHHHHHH
Method: (§1) The epitopes of single domain antibodies (sdAbs) that comprise VHH domains that bind CD123 were compared using Bio-Layer Interferometry. 5 ug/mL of histidine tagged human CD123 was immobilized on Nickel-nitrilotriacetic acid (Ni-NTA) coated capture sensors. 100 nM of one sdAb was then loaded onto the CD123 antigen and allowed to come to equilibrium. The sensors were then transferred into 100 nM of a second sdAb.

[2] = biological target: T2, human CD123 (full-length, on cells) (human, UniProt P26951 19-378); test: flow cytometry, HEK 293 cells transfected with full-length CD123 (CD123-FL); Median RL-1H
T2 construct: also called CD123-FL; interleukin-3 receptor alpha chain
Method: (§2) Binding of sdAbs to human CD123 was assessed by flow cytometry. […] HEK 293 cells were transiently transfected with a plasmid encoding full-length CD123 (UniProt Accession No. P26951-1; mature form, SEQ ID NO: 1) and used as the positive cell line in FIGS. 2A to 2M, and untransfected HEK 293 cells were used as CD123-negative cells. In FIG. 2N, Molm-13 cells, which express CD123, were used as the positive cell line. Each cell type was plated at 30,000 cells/well in FACS buffer (PBS 1% BSA, 0.1% NaN₃ pH 7.4) on a 96-well round-bottom plate. The sdAbs were diluted in FACS buffer in a 3-fold, 11 point serial dilution. The sdAb dilutions were added to the plated cells, and assay plates were incubated for 30 minutes at 4° C. After washing twice in 150 μL of FACS buffer, cells in each well were resuspended in 100 μL of 1:2000 Alexa Fluor 647-conjugated Anti-Human IgG secondary diluted in FACS buffer and incubated at 4° C. for 30 minutes. The cells were washed twice more, then bound antibody was detected by flow cytometry.
(§3) Flow cytometric analysis was performed on an Intellicyte iQue Plus and fluorescence was plotted as median fluorescence intensity. The apparent affinity (Kd, nM) was determined using one site binding non-linear regression in PRISM graph software.
Target sequence in this assay (P26951 19-378): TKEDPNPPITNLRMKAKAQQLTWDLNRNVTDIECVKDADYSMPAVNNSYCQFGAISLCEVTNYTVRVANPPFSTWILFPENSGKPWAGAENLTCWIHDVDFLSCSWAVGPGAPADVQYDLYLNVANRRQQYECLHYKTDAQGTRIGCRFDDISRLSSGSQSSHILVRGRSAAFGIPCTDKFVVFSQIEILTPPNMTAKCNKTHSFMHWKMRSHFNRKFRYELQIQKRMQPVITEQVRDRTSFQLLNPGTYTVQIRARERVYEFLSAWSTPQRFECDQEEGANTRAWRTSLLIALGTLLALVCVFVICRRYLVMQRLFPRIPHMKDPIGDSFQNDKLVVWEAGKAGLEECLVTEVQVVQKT

[3] = biological target: T2, human CD123 (full-length, on cells); test: flow cytometry on HEK 293 cells transfected with full-length CD123; apparent Kd, one-site fit
Method: as §2, §3
Target sequence in this assay (P26951 19-378): as above

[4] = biological target: T2, human CD123 (full-length, on cells); test: flow cytometry, Molm-13 cells expressing CD123; Median RL1-H
Method: as §2, §3

[5] = biological target: T2, human CD123 (full-length, on cells); test: flow cytometry on Molm-13 cells, which express CD123; apparent Kd, one-site fit; apparent Kd by flow cytometry on CD123-expressing cells; the places shown do not name the cell line for this sdAb
Method: as §2, §3

[6] = biological target: T2, human CD123 (full-length, on cells); test: flow cytometry blocking assay, sdAb titrated on CD123-expressing HEK-293 cells with a fixed amount of IL-3-mFc
Method: (§4) Certain CD123-binding sdAbs were tested for the ability to block CD123 binding to IL-3 by titrating the sdAb onto CD123 expressing HEK-293 cells in the presence of a fixed amount of recombinant IL-3-mFc. Bound IL-3 was detected by flow cytometry using fluorophore conjugated anti-mouse IgG specific secondary antibody.

CD123-his [7] = biological target: T1, CD123-his; test: BLI, CD123-his on Ni-NTA sensors preloaded with hzA5v2, second sdAb 100 nM
Method: as §1

[8] = biological target: T2, human CD123 (full-length, on cells); test: flow cytometry blocking assay, sdAb titrated on CD123-expressing HEK-293 cells with a fixed amount of IL-3-mFc; remark: listed apart in the source
Method: as §4

binding result (CD123-his [1]): binds
EC50 (read off the curve) [2]: 2 to 3 nM
Kd [3]: 2.4 nM
B1: hz4F2v3-IgG1 (Fc fusion)
chain: EVQLVESGGGEVQPGGSLRLSCAASGRTVSNYPMAWFRQAPGKEREFVAHISWSGITSILNSVNDRFTISRDNAKNTIYLQMSSLRAEDTAVYYCAAAQRPTAGPKGPFGYWGQGTLVTVDKTHTCPPCPAPGGPSVFLFPPKPKDTLMISRTPEVTCVVVDVSHEDPEVKFNWYVDGVEVHNAKTKPREEQYNSTYRVVSVLTVLHQDWLNGKEYKCKVSNKALPAPIEKTISKAKGQPREPQVYTLPPSRDELTKNQVSLTCLVKGFYPSDIAVEWESNGQPENNYKTTPPVLDSDGSFFLYSKLTVDKSRWQQGNVFSCSVMHEALHNHYTQKSLSLSPGK
notes: also called hz4F2v3 sdAb

EC50 (read off the curve) [4]: ~1 nM
Kd [5]: 1.36 nM
B2: hz1F5v6-IgG1 (Fc fusion)
chain: EVQLVESGGGEVQPGGSLRLSCAASGRAINMYAMGWFRQAPGKEREFVAAINWNAAYTQYAESVKGRFTISRDNAKNTLYLQMSSLRAEDTAVYYCSADADYNTYVSPNKRVSYWGQGTLVTVKPDKTHTCPPCPAPGGPSVFLFPPKPKDTLMISRTPEVTCVVVDVSHEDPEVKFNWYVDGVEVHNAKTKPREEQYNSTYRVVSVLTVLHQDWLNGKEYKCKVSNKALPAPIEKTISKAKGQPREPQVYTLPPSRDELTKNQVSLTCLVKGFYPSDIAVEWESNGQPENNYKTTPPVLDSDGSFFLYSKLTVDKSRWQQGNVFSCSVMHEALHNHYTQKSLSLSPGK

IC50 (read off the curve) [6]: ~0.7 nM
EC50 (read off the curve) [2]: ~1 nM
binding result (CD123-his [7]): binds
IC50 (read off the curve) [8]: ~2 nM
B3: C5-IgG1 (Fc fusion)
chain: QVTLRESGGGLVQAGGSLRLSCKGSGRAINTYAMGWFRQAPGKEREFVAAISWNGGHTRYADSVQGRFAISRDNADNTMYLQMNSLKPEDTAVYHCAAYSDYHRIATMEADADSWGQGTQVTVDKTHTCPPCPAPGGPSVFLFPPKPKDTLMISRTPEVTCVVVDVSHEDPEVKFNWYVDGVEVHNAKTKPREEQYNSTYRVVSVLTVLHQDWLNGKEYKCKVSNKALPAPIEKTISKAKGQPREPQVYTLPPSRDELTKNQVSLTCLVKGFYPSDIAVEWESNGQPENNYKTTPPVLDSDGSFFLYSKLTVDKSRWQQGNVFSCSVMHEALHNHYTQKSLSLSPGK
notes: also called sdAb C5
